Test results reported in the supplement of paper PMC6757056.
± gives the standard deviation of the averaged measurements.

B1: library; a variant is named by its letters at N, in order (parent)
chain: GCUGUCACCGAGAAACUGUGAAGUAUAUCUUAAACCUGGGCACUUAAAAGAUAUAUGGAGUUAGUAGUGCAACCUGCUCGGUCUGAUGAGUCCNNNNNNGGACGAAACAGC

Assays:
cyclic di-GMP [1] = variants of: B1; test: normalized RNA/DNA level without ligand (relative to sTRSVctl = 100) (log10 (% of sTRSVctl)); HEK293T; ligand: cyclic di-GMP (c-di-GMP-II aptamer); higher = less ribozyme self-cleavage, higher mRNA level; conditions: reporter: mCherry (pCS4076), ligand present: no
Procedure, shortened: (§1)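 Ribozyme switch library plasmids with mCherry reporters (eGFP in certain ligand experiments) went into HEK293T cells at 4 µg per 6-well well. Where ligand was used, it was applied 1 h before transfection, and total RNA was extracted with EDTA 72 h later for reverse transcription, amplification, barcoding and sequencing. RNA level is the RNA-to-DNA read ratio normalized to a spiked-in non-cleaving sequence or to the leading sequences, then scaled and log-transformed. Scaling was ×100 with log10, the leading set comprised 25 sequences, and the cutoff was ≥100 DNA reads.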

cyclic di-GMP [2] = variants of: B1; test: normalized RNA/DNA level with ligand (relative to sTRSVctl = 100) (log10 (% of sTRSVctl)); HEK293T; ligand: cyclic di-GMP (c-di-GMP-II aptamer); ligand concentration (+) RNA-Seq: 1 mM; higher = less ribozyme self-cleavage, higher mRNA level; conditions: reporter: mCherry (pCS4076), ligand present: yes
Procedure, shortened: as §1

With GCUGUCACCGAGAAACUGUGAAGUAUAUCUUAAACCUGGGCACUUAAAAGAUAUAUGGAGUUAGUAGUGCAACCUGCUCGGUCUGAUGAGUCCUUGUCGGGACGAAACAGC the “normalized RNA/DNA level without ligand (log10)” value (cyclic di-GMP [1]) was 1.79 ± 0.032 and the “normalized RNA/DNA level with ligand (log10)” value (cyclic di-GMP [2]) was 1.89 ± 0.05.

GCUGUCACCGAGAAACUGUGAAGUAUAUCUUAAACCUGGGCACUUAAAAGAUAUAUGGAGUUAGUAGUGCAACCUGCUCGGUCUGAUGAGUCCACGAAUGGACGAAACAGC was tested, and the “normalized RNA/DNA level without ligand (log10)” value (cyclic di-GMP [1]) was 1.31 ± 0.061 and the “normalized RNA/DNA level with ligand (log10)” value (cyclic di-GMP [2]) was 1.53 ± 0.079.

GCUGUCACCGAGAAACUGUGAAGUAUAUCUUAAACCUGGGCACUUAAAAGAUAUAUGGAGUUAGUAGUGCAACCUGCUCGGUCUGAUGAGUCCUGUAGAGGACGAAACAGC was tested, and the “normalized RNA/DNA level without ligand (log10)” value (cyclic di-GMP [1]) was 1.67 ± 0.045 and the “normalized RNA/DNA level with ligand (log10)” value (cyclic di-GMP [2]) was 1.82 ± 0.12.

With GCUGUCACCGAGAAACUGUGAAGUAUAUCUUAAACCUGGGCACUUAAAAGAUAUAUGGAGUUAGUAGUGCAACCUGCUCGGUCUGAUGAGUCCGGUAAUGGACGAAACAGC the “normalized RNA/DNA level without ligand (log10)” value (cyclic di-GMP [1]) was 1.61 ± 0.039 and the “normalized RNA/DNA level with ligand (log10)” value (cyclic di-GMP [2]) was 1.72 ± 0.037.

With GCUGUCACCGAGAAACUGUGAAGUAUAUCUUAAACCUGGGCACUUAAAAGAUAUAUGGAGUUAGUAGUGCAACCUGCUCGGUCUGAUGAGUCCUUGGCCGGACGAAACAGC the “normalized RNA/DNA level without ligand (log10)” value (cyclic di-GMP [1]) was 1.81 ± 0.031 and the “normalized RNA/DNA level with ligand (log10)” value (cyclic di-GMP [2]) was 1.88 ± 0.097.

In the case of GCUGUCACCGAGAAACUGUGAAGUAUAUCUUAAACCUGGGCACUUAAAAGAUAUAUGGAGUUAGUAGUGCAACCUGCUCGGUCUGAUGAGUCCCAAACUGGACGAAACAGC, the “normalized RNA/DNA level without ligand (log10)” value (cyclic di-GMP [1]) is reported as 1.54 ± 0.045 and the “normalized RNA/DNA level with ligand (log10)” value (cyclic di-GMP [2]) is reported as 1.68 ± 0.072.

In the case of GCUGUCACCGAGAAACUGUGAAGUAUAUCUUAAACCUGGGCACUUAAAAGAUAUAUGGAGUUAGUAGUGCAACCUGCUCGGUCUGAUGAGUCCUCGCGGGGACGAAACAGC, the “normalized RNA/DNA level without ligand (log10)” value (cyclic di-GMP [1]) is reported as 1.78 ± 0.051 and the “normalized RNA/DNA level with ligand (log10)” value (cyclic di-GMP [2]) is reported as 1.85 ± 0.14.

In the case of GCUGUCACCGAGAAACUGUGAAGUAUAUCUUAAACCUGGGCACUUAAAAGAUAUAUGGAGUUAGUAGUGCAACCUGCUCGGUCUGAUGAGUCCCCGUCAGGACGAAACAGC, the “normalized RNA/DNA level without ligand (log10)” value (cyclic di-GMP [1]) is reported as 1.592 ± 0.009 and the “normalized RNA/DNA level with ligand (log10)” value (cyclic di-GMP [2]) is reported as 1.79 ± 0.047.

In the case of GCUGUCACCGAGAAACUGUGAAGUAUAUCUUAAACCUGGGCACUUAAAAGAUAUAUGGAGUUAGUAGUGCAACCUGCUCGGUCUGAUGAGUCCUGAAGGGGACGAAACAGC, the “normalized RNA/DNA level without ligand (log10)” value (cyclic di-GMP [1]) is reported as 1.661 ± 0.00062 and the “normalized RNA/DNA level with ligand (log10)” value (cyclic di-GMP [2]) is reported as 1.84 ± 0.08.

For GCUGUCACCGAGAAACUGUGAAGUAUAUCUUAAACCUGGGCACUUAAAAGAUAUAUGGAGUUAGUAGUGCAACCUGCUCGGUCUGAUGAGUCCCGCCGCGGACGAAACAGC, the “normalized RNA/DNA level without ligand (log10)” value (cyclic di-GMP [1]) was 1.8 ± 0.068 and the “normalized RNA/DNA level with ligand (log10)” value (cyclic di-GMP [2]) was 1.91 ± 0.11.

For GCUGUCACCGAGAAACUGUGAAGUAUAUCUUAAACCUGGGCACUUAAAAGAUAUAUGGAGUUAGUAGUGCAACCUGCUCGGUCUGAUGAGUCCGUCGAUGGACGAAACAGC, the “normalized RNA/DNA level without ligand (log10)” value (cyclic di-GMP [1]) was 1.59 ± 0.11 and the “normalized RNA/DNA level with ligand (log10)” value (cyclic di-GMP [2]) was 1.71 ± 0.096.

GCUGUCACCGAGAAACUGUGAAGUAUAUCUUAAACCUGGGCACUUAAAAGAUAUAUGGAGUUAGUAGUGCAACCUGCUCGGUCUGAUGAGUCCACCAUCGGACGAAACAGC was tested, and the “normalized RNA/DNA level without ligand (log10)” value (cyclic di-GMP [1]) was 1.68 ± 0.04 and the “normalized RNA/DNA level with ligand (log10)” value (cyclic di-GMP [2]) was 1.81 ± 0.13.

With GCUGUCACCGAGAAACUGUGAAGUAUAUCUUAAACCUGGGCACUUAAAAGAUAUAUGGAGUUAGUAGUGCAACCUGCUCGGUCUGAUGAGUCCUCGGGUGGACGAAACAGC the “normalized RNA/DNA level without ligand (log10)” value (cyclic di-GMP [1]) was 1.64 ± 0.09 and the “normalized RNA/DNA level with ligand (log10)” value (cyclic di-GMP [2]) was 1.79 ± 0.13.

GCUGUCACCGAGAAACUGUGAAGUAUAUCUUAAACCUGGGCACUUAAAAGAUAUAUGGAGUUAGUAGUGCAACCUGCUCGGUCUGAUGAGUCCGGGUAGGGACGAAACAGC was tested, and the “normalized RNA/DNA level without ligand (log10)” value (cyclic di-GMP [1]) was 1.85 ± 0.057 and the “normalized RNA/DNA level with ligand (log10)” value (cyclic di-GMP [2]) was 1.89 ± 0.059.

With GCUGUCACCGAGAAACUGUGAAGUAUAUCUUAAACCUGGGCACUUAAAAGAUAUAUGGAGUUAGUAGUGCAACCUGCUCGGUCUGAUGAGUCCCAAUUUGGACGAAACAGC the “normalized RNA/DNA level without ligand (log10)” value (cyclic di-GMP [1]) was 1.51 ± 0.095 and the “normalized RNA/DNA level with ligand (log10)” value (cyclic di-GMP [2]) was 1.71 ± 0.081.

GCUGUCACCGAGAAACUGUGAAGUAUAUCUUAAACCUGGGCACUUAAAAGAUAUAUGGAGUUAGUAGUGCAACCUGCUCGGUCUGAUGAGUCCGGCAUUGGACGAAACAGC was tested, and the “normalized RNA/DNA level without ligand (log10)” value (cyclic di-GMP [1]) was 1.66 ± 0.076 and the “normalized RNA/DNA level with ligand (log10)” value (cyclic di-GMP [2]) was 1.82 ± 0.021.

GCUGUCACCGAGAAACUGUGAAGUAUAUCUUAAACCUGGGCACUUAAAAGAUAUAUGGAGUUAGUAGUGCAACCUGCUCGGUCUGAUGAGUCCUUUAGGGGACGAAACAGC was tested, and the “normalized RNA/DNA level without ligand (log10)” value (cyclic di-GMP [1]) was 1.87 ± 0.057 and the “normalized RNA/DNA level with ligand (log10)” value (cyclic di-GMP [2]) was 1.96 ± 0.14.

For GCUGUCACCGAGAAACUGUGAAGUAUAUCUUAAACCUGGGCACUUAAAAGAUAUAUGGAGUUAGUAGUGCAACCUGCUCGGUCUGAUGAGUCCUAAGCGGGACGAAACAGC, the “normalized RNA/DNA level without ligand (log10)” value (cyclic di-GMP [1]) was 1.75 ± 0.023 and the “normalized RNA/DNA level with ligand (log10)” value (cyclic di-GMP [2]) was 1.86 ± 0.089.

With GCUGUCACCGAGAAACUGUGAAGUAUAUCUUAAACCUGGGCACUUAAAAGAUAUAUGGAGUUAGUAGUGCAACCUGCUCGGUCUGAUGAGUCCGUAGCCGGACGAAACAGC the “normalized RNA/DNA level without ligand (log10)” value (cyclic di-GMP [1]) was 1.69 ± 0.071 and the “normalized RNA/DNA level with ligand (log10)” value (cyclic di-GMP [2]) was 1.8 ± 0.11.

In the case of GCUGUCACCGAGAAACUGUGAAGUAUAUCUUAAACCUGGGCACUUAAAAGAUAUAUGGAGUUAGUAGUGCAACCUGCUCGGUCUGAUGAGUCCUACUGUGGACGAAACAGC, the “normalized RNA/DNA level without ligand (log10)” value (cyclic di-GMP [1]) is reported as 1.6108 ± 0.00033 and the “normalized RNA/DNA level with ligand (log10)” value (cyclic di-GMP [2]) is reported as 1.79 ± 0.15.

GCUGUCACCGAGAAACUGUGAAGUAUAUCUUAAACCUGGGCACUUAAAAGAUAUAUGGAGUUAGUAGUGCAACCUGCUCGGUCUGAUGAGUCCCAGGUAGGACGAAACAGC was tested, and the “normalized RNA/DNA level without ligand (log10)” value (cyclic di-GMP [1]) was 1.57 ± 0.081 and the “normalized RNA/DNA level with ligand (log10)” value (cyclic di-GMP [2]) was 1.67 ± 0.11.

In the case of GCUGUCACCGAGAAACUGUGAAGUAUAUCUUAAACCUGGGCACUUAAAAGAUAUAUGGAGUUAGUAGUGCAACCUGCUCGGUCUGAUGAGUCCGGCGUAGGACGAAACAGC, the “normalized RNA/DNA level without ligand (log10)” value (cyclic di-GMP [1]) is reported as 1.6 ± 0.017 and the “normalized RNA/DNA level with ligand (log10)” value (cyclic di-GMP [2]) is reported as 1.74 ± 0.13.

For GCUGUCACCGAGAAACUGUGAAGUAUAUCUUAAACCUGGGCACUUAAAAGAUAUAUGGAGUUAGUAGUGCAACCUGCUCGGUCUGAUGAGUCCGAUCUCGGACGAAACAGC, the “normalized RNA/DNA level without ligand (log10)” value (cyclic di-GMP [1]) was 1.75 ± 0.02 and the “normalized RNA/DNA level with ligand (log10)” value (cyclic di-GMP [2]) was 1.89 ± 0.15.

For GCUGUCACCGAGAAACUGUGAAGUAUAUCUUAAACCUGGGCACUUAAAAGAUAUAUGGAGUUAGUAGUGCAACCUGCUCGGUCUGAUGAGUCCAAAGGCGGACGAAACAGC, the “normalized RNA/DNA level without ligand (log10)” value (cyclic di-GMP [1]) was 1.6 ± 0.044 and the “normalized RNA/DNA level with ligand (log10)” value (cyclic di-GMP [2]) was 1.77 ± 0.14.

For GCUGUCACCGAGAAACUGUGAAGUAUAUCUUAAACCUGGGCACUUAAAAGAUAUAUGGAGUUAGUAGUGCAACCUGCUCGGUCUGAUGAGUCCUUUCACGGACGAAACAGC, the “normalized RNA/DNA level without ligand (log10)” value (cyclic di-GMP [1]) was 1.73 ± 0.093 and the “normalized RNA/DNA level with ligand (log10)” value (cyclic di-GMP [2]) was 1.84 ± 0.14.

GCUGUCACCGAGAAACUGUGAAGUAUAUCUUAAACCUGGGCACUUAAAAGAUAUAUGGAGUUAGUAGUGCAACCUGCUCGGUCUGAUGAGUCCUGUGUCGGACGAAACAGC was tested, and the “normalized RNA/DNA level without ligand (log10)” value (cyclic di-GMP [1]) was 1.756 ± 0.0091 and the “normalized RNA/DNA level with ligand (log10)” value (cyclic di-GMP [2]) was 1.86 ± 0.1.
